One data set relates to tau in Hela-V5-tau cells. As to the kind of experiment: Tau immunocytochemistry in Hela-V5-tau cells expressing YFP-β-arrestin2 mutants. In kind it is cell-based. An excerpt: (§1) FIGS. 11A to 11E show β-arrestin2 oligomerization mutants reduce tau aggregates. FIG. 11A contains representative confocal images of total tau in Hela-V5-tau cells transfected with YFP, YFP-β-arrestin2 ΔIP6C, or YFP-β-arrestin2 ΔIP6N (Scale bar=10 μm). FIG. 11B contains representative confocal images of proximity ligation assay (PLA) in Hela-V5-tau cells transfected with β-arrestin2-flag and β-arrestin2-myc with YFP control, YFP-β-arrestin2 ΔIP6C, or YFP-β-arrestin2 ΔIP6N.
Cells were fixed with 4% paraformaldehyde for 15 min at room temperature and washed with 0.2% triton in TBS and blocked using 3% BSA with 0.1% triton x-100 for 1 hr, incubated with primary antibodies for overnight at 4° C. and fluorescently labeled secondary antibodies for 45 min at room temperature. For immunohistochemistry, mice were perfused with PBS and fixed with 4% paraformaldehyde. […] Images were captured with the Olympus FV10i confocal microscope (Tokyo, Japan), and the immunoreactivities were quantified using the Image J software (National Institutes of Health, Bethesda, MD). Immunoreactivities were quantitated from every 12th serial section through an entire hippocampus. […] Regions of interest were chosen randomly, and investigators were blinded to experimental conditions during image acquisition and quantification. […]

Data set [1] deals with tau turnover in Hela-V5-tau cells. As to the kind of experiment: Cycloheximide chase of tau turnover in Hela-V5-tau cells. It counts as cell-based. Conditions: cycloheximide 100 μg/ml. The text has this:
FIGS. 4A to 4E show β-arrestin2 oligomerization is required for suppressing tau turnover. […] Data are shown as box plots or mean±SEM.
(§2) When DIV 18 tau P301S cortical primary neurons were transduced with either β-arrestin2 ΔIP6C or ΔIP6N lentivirus, an approximately 50% reduction in tau compared to control was evident (FIGS. 4A,4B), which represents a key finding relevant to both mechanism of action and potential therapeutic strategies. […] Also investigated was whether β-arrestin2 oligomerization is required for slowing tau turnover by disrupting oligomerization using these mutants in several models. […] To determine whether β-arrestin2 oligomerization status alters tau aggregation itself, filter-trap assays were performed from Hela-V5-tau cells transfected with β-arrestin2 variants, in which tau aggregates from detergent-soluble and-insoluble lysates were captured by cellulose acetate membranes and assessed by immunoblotting.

The next data set relates to tau aggregates. As to the kind of experiment: Filter-trap assay for tau aggregates from Hela-V5-tau cells. Conditions: vs control vector. It counts as cell-based.
Text: as §1, §2

Data set [2] has as its target T1, HA-p62 and GFP-p62 interaction (Homo sapiens, UniProt Q13501).
T1 construct: #38277; host or cells: Hela-V5-tau cells
As to the kind of experiment: Co-IP of HA-p62 and GFP-p62 interaction. It counts as cell-based. Conditions: Hela-V5-tau cells. The text has this:
(§3) FIGS. 12A to 12E show β-arrestin2 interacts with p62, and β-arrestin2 oligomerization inhibits p62 self-interaction. FIG. 12A contains representative confocal images of mCherry and EGFP in Hela-V5-tau cells transfected with mCherry-GFP-p62 together with control vector, β-arrestin2-flag, or β-arrestin2 ΔIP6N-flag (Scale bar=10 μm). […] The box and whisker plots show all data points, and the box plots show all data points, the median and IQR, and the minimal and maximal values. FIG. 12C contains representative immunoblots of indicated proteins from Hela-V5-tau cells transfected GFP or GFP-β-arrestin2 with/without HA-p62. Note that β-arrestin2 is present in HA immune complexes only in the presence of HA-p62, whereas β-arrestin2 is not detected in control IgG beads. […] Lysates were subjected to IP for HA. […] FIG. 12F show quantification of flag/p62 PLA puncta/cell (N=4 independent experiments, #P<0.0001).
Brain homogenates and cultured cells were lysed with RIPA buffer (50 mM Tris pH 7.4, 150 mM NaCl, 2 mM ethlenediaminetetraacetic acid, 1% NP-40, 0.1% sodium dodecyl sulfate) plus protease and phosphatase inhibitors. Proteins were extracted and centrifuged at 15000 rpm for 15 min at 4° C., and RIPA insoluble fractions were lysed with 5% SDS with 1% β-mercaptoethanol, 50 mM Tris-HCl pH 6.8, 12.5 mM EDTA, 10% glycerol, and 0.02% bromophenol blue. […]

A further data set concerns the target T2, p62 (Homo sapiens, UniProt Q13501).
T2 construct: endogenous in cells; host or cells: Hela-V5-tau cells
As to the kind of experiment: Interaction of β-arrestin2 variants with p62 (flag/p62 PLA). It counts as cell-based. Conditions: Hela-V5-tau cells.
Text: as §3
Given the effects on p62 autophagy flux, whether β-arrestin2 physically interacts with p62 was tested. […] Given that β-arrestin2 oligomeric mutants, ΔIP6C and ΔIP6N, reduced tau aggregates by slowing tau turnover, next tested was whether β-arrestin2 ΔIP6C and ΔIP6N mutants affect p62 self-association by a proximity ligation assays (PLA) as well as co-IP. […]

The target of the next data set is β-arrestin2 oligomers (Rattus norvegicus, UniProt P29067). Conditions: BRET and co-immunoprecipitation; cited from earlier work.
A further data set has as its system activated GPCRs. Conditions: cited from earlier work.

Sequence of β-arrestin2 oligomers (P29067 whole entry): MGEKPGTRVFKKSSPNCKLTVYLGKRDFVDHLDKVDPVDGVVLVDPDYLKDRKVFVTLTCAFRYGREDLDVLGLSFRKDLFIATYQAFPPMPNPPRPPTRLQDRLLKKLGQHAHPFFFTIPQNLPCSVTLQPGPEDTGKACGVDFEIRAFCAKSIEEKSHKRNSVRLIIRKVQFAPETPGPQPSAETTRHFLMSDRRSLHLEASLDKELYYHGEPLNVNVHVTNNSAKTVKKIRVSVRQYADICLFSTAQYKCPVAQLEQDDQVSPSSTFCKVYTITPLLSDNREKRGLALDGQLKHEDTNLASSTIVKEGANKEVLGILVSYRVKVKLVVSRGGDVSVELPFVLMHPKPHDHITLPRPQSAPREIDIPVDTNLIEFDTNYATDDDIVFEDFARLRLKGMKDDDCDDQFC

B1: β-arrestin2 ΔIP6N: β-arrestin2 N-terminal domain mutant (K158A, K161A, and R162A), incapable of forming oligomers; dominant negative (protein, UniProt P32121 1-409, looked up, variant K158A K161A R162A)
Beta-arrestin-2: MGEKPGTRVFKKSSPNCKLTVYLGKRDFVDHLDKVDPVDGVVLVDPDYLKDRKVFVTLTCAFRYGREDLDVLGLSFRKDLFIATYQAFPPVPNPPRPPTRLQDRLLRKLGQHAHPFFFTIPQNLPCSVTLQPGPEDTGKACGVDFEIRAFCAKSLEEASHAANSVRLVIRKVQFAPEKPGPQPSAETTRHFLMSDRSLHLEASLDKELYYHGEPLNVNVHVTNNSTKTVKKIKVSVRQYADICLFSTAQYKCPVAQLEQDDQVSPSSTFCKVYTITPLLSDNREKRGLALDGKLKHEDTNLASSTIVKEGANKEVLGILVSYRVKVKLVVSRGGDVSVELPFVLMHPKPHDHIPLPRPQSAAPETDVPVDTNLIEFDTNYATDDDIVFEDFARLRLKGMKDDDYDDQLC
modifications: GFP or YFP tag
notes: dominant negative
Consider B1, for which the tau by immunocytochemistry entry in the data set on tau in Hela-V5-tau cells is listed as “significant reductions”. The “tau turnover in cycloheximide chase” value in data set [1] was “enhancement of tau turnover”. Moreover, the “tau aggregates in detergent-insoluble lysates (filter-trap)” value in the data set on tau aggregates is on record as “significantly reduced tau aggregates”. Besides, the “HA-p62 and GFP-p62 interaction by co-IP” value in data set [2] was “neither β-arrestin2 ΔIP6C nor β-arrestin2 ΔIP6N alone were capable of reducing HA-p62 and GFP-p62 interaction”. Besides, the “interaction with p62 compared to β-arrestin2” value with p62 is “much less interaction with p62”. Also, the oligomer formation entry with β-arrestin2 oligomers was “incapable of forming oligomers”. Moreover, in the data set on activated GPCRs, the “binding to activated GPCRs” value is “bind to activated GPCRs with WT affinity”.

(Values after patent US11896644B2, “Inhibition of beta-arrestin oligomerization in tauopathy” (UNIVERSITY OF SOUTH FLORIDA, priority 2020, dated 2024).)
